Results published in patent publication EP4534564A1 (ImmuneOnco Biopharmaceuticals (Shanghai) Inc., dated 2025).

Experiments:
[1] = biological target: recombinant human VEGF-165 protein (Cat#11066-HNAH, Sino Biologicals) (human, UniProt P15692-4 27-191); assay: ELISA, VEGF-165 coated 50 ng/well
[2] = biological target: T1, monkey PD-L1 (Cat#90251-C08H, sino Biological) (monkey, UniProt G7PSE7 19-238); assay: BLI (Gator), human Fc probe, Kinetics Assay mode, 25 C
T1 construct: also called PD-L1-his

[3] = biological target: PD-L1 on CHO-PD-L1 cells (Cat#YMAK-C006, ImmuneOnco) (UniProt Q9NZQ7 19-290, limits assumed); assay: cell-based or functional assay
Sequence of PD-L1 on CHO-PD-L1 cells (Cat#YMAK-C006, ImmuneOnco) (Q9NZQ7 19-290 limits assumed): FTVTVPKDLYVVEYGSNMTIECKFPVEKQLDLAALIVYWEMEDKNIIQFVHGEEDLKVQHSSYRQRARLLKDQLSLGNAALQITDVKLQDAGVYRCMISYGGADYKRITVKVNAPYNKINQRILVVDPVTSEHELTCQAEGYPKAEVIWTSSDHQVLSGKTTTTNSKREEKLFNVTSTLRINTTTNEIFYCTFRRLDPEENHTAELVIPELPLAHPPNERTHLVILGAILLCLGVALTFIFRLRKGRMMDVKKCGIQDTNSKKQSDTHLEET

T1 sequence (G7PSE7 entry or part of it C08H C08H limits assumed, form in doubt): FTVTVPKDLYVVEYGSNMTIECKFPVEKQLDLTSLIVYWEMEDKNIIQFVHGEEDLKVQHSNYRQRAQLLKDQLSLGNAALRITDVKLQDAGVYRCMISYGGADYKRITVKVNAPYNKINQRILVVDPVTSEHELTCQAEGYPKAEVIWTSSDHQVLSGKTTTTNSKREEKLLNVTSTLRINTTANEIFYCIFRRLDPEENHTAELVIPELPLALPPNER
Sequence of recombinant human VEGF-165 protein (Cat#11066-HNAH, Sino Biologicals) (P15692 other isoform, or with tags, fused parts or gaps limits assumed): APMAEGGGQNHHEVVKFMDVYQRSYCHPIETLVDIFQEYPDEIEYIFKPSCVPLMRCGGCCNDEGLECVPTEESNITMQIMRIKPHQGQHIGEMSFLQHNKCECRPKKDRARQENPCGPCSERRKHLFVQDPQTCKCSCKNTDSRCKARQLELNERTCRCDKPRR

B1: IMM2519 (bispecific antibody, human IgG1, kappa)
heavy: QVQLVQSGAEVKKPGASVKVSCKASGYTFTSNWMHWVRQAPGQGLEWMGMIHPNSGSSNYNEKFKSRVTMTRDTSTSTVYMELSSLRSEDTAVYYCARSYYGSSPYYFDYWGQGTLVTVSSASTKGPSVFPLAPSSKSTSGGTAALGCLVKDYFPEPVTVSWNSGALTSGVHTFPAVLQSSGLYSLSSVVTVPSSSLGTQTYICNVNHKPSNTKVDKRVEPKSCDKTHTCPPCPAPELLGGPSVFLFPPKPKDTLMISRTPEVTCVVVDVSHEDPEVKFNWYVDGVEVHNAKTKPREEQYNATYRVVSVLTVLHQDWLNGKEYKCKVSNKALPAPIAATISKAKGQPREPQVYTLPPSREEMTKNQVSLTCLVKGFYPSDIAVEWESNGQPENNYKTTPPVLDSDGSFFLYSKLTVDKSRWQQGNVFSCSVMHEALHNHYTQKSLSLSPGK
light: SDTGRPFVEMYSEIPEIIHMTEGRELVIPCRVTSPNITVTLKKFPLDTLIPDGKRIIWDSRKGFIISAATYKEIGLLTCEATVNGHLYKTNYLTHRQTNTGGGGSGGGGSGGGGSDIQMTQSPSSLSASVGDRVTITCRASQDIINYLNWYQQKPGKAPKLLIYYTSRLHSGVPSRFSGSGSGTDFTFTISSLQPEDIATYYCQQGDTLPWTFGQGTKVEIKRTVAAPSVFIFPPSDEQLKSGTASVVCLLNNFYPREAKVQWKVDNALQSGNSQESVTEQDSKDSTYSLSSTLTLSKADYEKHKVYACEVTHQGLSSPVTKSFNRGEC
notes: Anti-PD-L1 IgG IMM2515H with VEGFR1D2 linked by a (G4S)3 linker to the N-terminus of each light chain; also called recombinant fusion protein
- binding result [1]: binds

B2: IMM2518 (bispecific antibody, human IgG1, kappa)
heavy: SDTGRPFVEMYSEIPEIIHMTEGRELVIPCRVTSPNITVTLKKFPLDTLIPDGKRIIWDSRKGFIISAATYKEIGLLTCEATVNGHLYKTNYLTHRQTNTGGGGSGGGGSGGGGSQVQLVQSGAEVKKPGASVKVSCKASGYTFTSNWMHWVRQAPGQGLEWMGMIHPNSGSSNYNEKFKSRVTMTRDTSTSTVYMELSSLRSEDTAVYYCARSYYGSSPYYFDYWGQGTLVTVSSASTKGPSVFPLAPSSKSTSGGTAALGCLVKDYFPEPVTVSWNSGALTSGVHTFPAVLQSSGLYSLSSVVTVPSSSLGTQTYICNVNHKPSNTKVDKRVEPKSCDKTHTCPPCPAPELLGGPSVFLFPPKPKDTLMISRTPEVTCVVVDVSHEDPEVKFNWYVDGVEVHNAKTKPREEQYNATYRVVSVLTVLHQDWLNGKEYKCKVSNKALPAPIAATISKAKGQPREPQVYTLPPSREEMTKNQVSLTCLVKGFYPSDIAVEWESNGQPENNYKTTPPVLDSDGSFFLYSKLTVDKSRWQQGNVFSCSVMHEALHNHYTQKSLSLSPGK
light: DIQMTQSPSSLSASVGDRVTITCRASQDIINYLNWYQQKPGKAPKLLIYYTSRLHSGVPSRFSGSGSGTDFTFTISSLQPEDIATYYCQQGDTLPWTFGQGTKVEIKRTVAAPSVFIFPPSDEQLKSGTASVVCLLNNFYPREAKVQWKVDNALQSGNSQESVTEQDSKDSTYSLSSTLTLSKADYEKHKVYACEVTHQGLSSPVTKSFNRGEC
notes: Anti-PD-L1 IgG IMM2515H with VEGFR1D2 linked by a (G4S)3 linker to the N-terminus of each heavy chain; also called recombinant fusion protein
- Kd [2]: 0.441 nM
- koff [2]: 0.000218 s⁻¹
- kon [2]: 494000 M⁻¹ s⁻¹
- ADCC (%lysis) against Raji-PD-L1 cells by NK92MI cells expressing FcgRIIIa (158V) [3]: 6 fold lower than IMM2515H
